In the Human Domainome abundance scans (Beltran et al. 2025):
± gives the uncertainty stated by the source.

B1: Pyruvate dehydrogenase protein X component, mitochondrial, residues 181 to 227; numbered along this chain, O00330 (parent)
chain: RFRLSPAARNILEKHSLDASQGTATGPRGIFTKEDALKLVQLKQTGK
B2: CD2-associated protein, residues 1 to 59; numbered along this chain, Q9Y5K6 (parent)
chain: MVDYIVEYDYDAVHDDELTIRVGEIIRNVKKLQEEGWLEGELNGRRGMFPDNFVKEIKR

Variants of: B1
Assay: abundance fitness (aPCA) (normalised: wild type 0, dead -1); higher = more abundant; growth selection in yeast, the domain comes from the species named
Conditions: Homo sapiens

Abundance fitness: each site, then its substitutions
L12: Y -1.16 ± 0.3; G -0.332 ± 0.048; W -0.765 ± 0.11; I -0.121 ± 0.062; T -0.181 ± 0.057; S -0.361 ± 0.053; C -0.019 ± 0.067; K -0.481 ± 0.11; M -0.263 ± 0.074; N -0.319 ± 0.086; R -0.422 ± 0.051; D 0.018 ± 0.076; H -0.504 ± 0.11; P -0.073 ± 0.062; A -0.317 ± 0.048; Q -0.199 ± 0.061; F -0.584 ± 0.13
N10: W -0.272 ± 0.048; F 0.106 ± 0.088; Q 0.106 ± 0.051; G -0.058 ± 0.046; R 0.024 ± 0.047; E 0.439 ± 0.074; C -0.13 ± 0.055; M -0.052 ± 0.087; A 0.063 ± 0.048; T 0.002 ± 0.048; V -0.001 ± 0.058; D 0.192 ± 0.085; Y -0.192 ± 0.12; P -0.163 ± 0.069; L 0.064 ± 0.048; K -0.014 ± 0.079; S 0.003 ± 0.054; H -0.086 ± 0.058
I11: G -0.409 ± 0.055; F -0.424 ± 0.14; S -0.436 ± 0.057; C -0.485 ± 0.07; L -0.316 ± 0.066; K -0.419 ± 0.087; W -0.786 ± 0.092; T -0.532 ± 0.08; R -0.397 ± 0.054; H -0.369 ± 0.11; D -0.175 ± 0.091; E -0.528 ± 0.075; N -0.194 ± 0.1; V -0.314 ± 0.053; M -0.52 ± 0.06; Q -0.469 ± 0.095; A -0.356 ± 0.057; P -0.383 ± 0.15
E13: P -0.564 ± 0.11; N 0.1 ± 0.11; F -0.612 ± 0.082; W -0.841 ± 0.11; K -0.097 ± 0.094; T -0.428 ± 0.055; C -0.441 ± 0.052; R -0.242 ± 0.043; D -0.079 ± 0.058; G -0.387 ± 0.054; A -0.255 ± 0.063; I -0.224 ± 0.096; L -0.225 ± 0.047; H -0.3 ± 0.1; V -0.391 ± 0.046; Q -0.215 ± 0.1; S -0.348 ± 0.057; M -0.661 ± 0.13
K14: F -0.146 ± 0.11; N -0.05 ± 0.073; A 0.008 ± 0.064; C -0.306 ± 0.056; D -0.172 ± 0.058; E 0.19 ± 0.067; M -0.149 ± 0.094; H -0.164 ± 0.079; G -0.142 ± 0.044; P -0.055 ± 0.081; I -0.165 ± 0.09
A8: W -1.15 ± 0.17; F -0.683 ± 0.12; I -1.07 ± 0.17; T -0.387 ± 0.06; C -0.999 ± 0.096; H -0.564 ± 0.076; R -0.391 ± 0.054; Q -0.601 ± 0.087; V -0.639 ± 0.055; E -0.183 ± 0.055; L -1.02 ± 0.077; N -0.817 ± 0.18; Y -0.902 ± 0.063; M -0.29 ± 0.1
P6: Q -0.08 ± 0.091; L -0.2 ± 0.046; R 0.038 ± 0.046; F -0.35 ± 0.08; T -0.093 ± 0.073; M -0.23 ± 0.094; N -0.053 ± 0.076; I -0.113 ± 0.046; K 0.07 ± 0.077; D -0.091 ± 0.065; E 0.355 ± 0.064; C -0.004 ± 0.091; W -0.261 ± 0.062; Y -0.174 ± 0.067; H -0.367 ± 0.087; S 0.041 ± 0.044; G -0.61 ± 0.048; A 0.027 ± 0.058
S5: Q -0.384 ± 0.097; C -0.608 ± 0.11; V -0.621 ± 0.048; T -0.032 ± 0.064; E 0.081 ± 0.044; W -1.01 ± 0.14; R -0.862 ± 0.057; L -0.725 ± 0.072; K -0.61 ± 0.065; D -0.098 ± 0.096; I -0.135 ± 0.19; G -0.564 ± 0.049; N -0.327 ± 0.2; M -0.036 ± 0.062; H -0.795 ± 0.14; A -0.257 ± 0.049
A7: K -0.187 ± 0.046; P -0.697 ± 0.082; M -0.396 ± 0.095; H -0.605 ± 0.15; G 0.06 ± 0.049; T 0.01 ± 0.073; N -0.432 ± 0.072; R -0.222 ± 0.047; W -0.98 ± 0.13; I -0.263 ± 0.099; D -0.211 ± 0.11; S -0.078 ± 0.052; Q 0.062 ± 0.061
R9: V -0.206 ± 0.054; M -0.251 ± 0.074; G -0.152 ± 0.042; A -0.135 ± 0.063; E -0.21 ± 0.085; K 0.1 ± 0.05; Y -0.495 ± 0.076; Q -0.05 ± 0.079; I -0.137 ± 0.056; H -0.252 ± 0.092; D -0.262 ± 0.058; N -0.092 ± 0.048; W -0.668 ± 0.089; C -0.924 ± 0.12; S -0.272 ± 0.053
F2: S -0.239 ± 0.046; V -0.486 ± 0.056; T -0.323 ± 0.079; P -1.1 ± 0.14; R -0.65 ± 0.041; G -0.535 ± 0.04; N 0.091 ± 0.073; L -0.46 ± 0.046; W -1.25 ± 0.11; H -0.878 ± 0.16; I -0.059 ± 0.1; K -0.232 ± 0.073; Q -0.679 ± 0.13; Y -0.015 ± 0.083; A -0.536 ± 0.063; M 0.137 ± 0.081; C -0.605 ± 0.075; E -0.316 ± 0.059; D -0.267 ± 0.088
R3: S -0.14 ± 0.055; F 0.144 ± 0.06; I 0.367 ± 0.097; Y 0.109 ± 0.077; W -0.119 ± 0.046; K -0.16 ± 0.078; G -0.336 ± 0.047; M -0.091 ± 0.077; E -0.57 ± 0.069; Q -0.374 ± 0.084; P -0.188 ± 0.073; L -0.393 ± 0.05; A -0.504 ± 0.061; N 0.31 ± 0.1; D -0.594 ± 0.13; H 0.04 ± 0.11; C -0.064 ± 0.069; V 0.04 ± 0.045
L4: S -0.167 ± 0.062; F -0.284 ± 0.14; C -0.086 ± 0.064; I 0.245 ± 0.074; A -0.37 ± 0.063; R -0.588 ± 0.058; K -0.09 ± 0.082; T -0.204 ± 0.059; M -0.008 ± 0.062; Q -0.357 ± 0.083; G -0.241 ± 0.044; E -0.104 ± 0.046; N 0.049 ± 0.092; Y -0.131 ± 0.077; D 0.005 ± 0.097; H -0.758 ± 0.11; P -0.333 ± 0.051
R1: A 0.02 ± 0.23; W -0.651 ± 0.16; G 0.171 ± 0.063; P -1.1 ± 0.25; S 0.145 ± 0.095; Q -0.362 ± 0.32; E -0.206 ± 0.14; N -0.353 ± 0.29; V -0.685 ± 0.054; C -0.516 ± 0.27; M -0.489 ± 0.17; K -0.289 ± 0.17; I -0.317 ± 0.36; T -1.29 ± 0.45

Variants of: B2
Assay: as above
Conditions: Homo sapiens

Abundance fitness, by site and new letter:
F53: D -0.433 ± 0.14; V 0.023 ± 0.083; L 0.056 ± 0.086; C 0.122 ± 0.083; Q -0.317 ± 0.12; W -0.026 ± 0.35; T 0.205 ± 0.098; H 0.111 ± 0.11; P -0.249 ± 0.11; M -0.047 ± 0.28; E -0.155 ± 0.21; I -0.119 ± 0.14; A 0.052 ± 0.073; R 0.001 ± 0.084; N -0.053 ± 0.072; S 0.035 ± 0.071; G -0.145 ± 0.089; Y -0.131 ± 0.13
D51: R -0.019 ± 0.064; P -0.092 ± 0.083; S -0.055 ± 0.057; N 0.191 ± 0.3; T 0.018 ± 0.071; Y -0.125 ± 0.088; V -0.066 ± 0.091; W -0.425 ± 0.41
R59: P 0.2 ± 0.15; G 0.011 ± 0.097; F -0.182 ± 0.22; A -0.303 ± 0.22; S 0.052 ± 0.1; M -0.058 ± 0.1; L 0.063 ± 0.11; T -0.011 ± 0.32; W -0.126 ± 0.1; K 0.012 ± 0.14; E 0.138 ± 0.12; Q 0.024 ± 0.25; C 0.035 ± 0.29; H 0.107 ± 0.14; Y -0.156 ± 0.26
E56: I -0.286 ± 0.44; K 0.024 ± 0.28; M -0.152 ± 0.21; T -0.244 ± 0.17; A -0.002 ± 0.12; L -0.18 ± 0.1; V -0.05 ± 0.27; R -0.137 ± 0.089; Q -0.217 ± 0.25; P 0.06 ± 0.19; S -0.256 ± 0.11; C -0.044 ± 0.4
K55: Q 0.032 ± 0.11; R 0.009 ± 0.072; C -0.027 ± 0.15; S -0.07 ± 0.079; F -0.961 ± 0.42; W -0.771 ± 0.32; L -0.303 ± 0.094; E -0.489 ± 0.3; Y -0.294 ± 0.23; I -0.177 ± 0.12; P -0.507 ± 0.37; D -0.755 ± 0.33; H -0.301 ± 0.27; G -0.216 ± 0.1; N -0.272 ± 0.17; M -0.218 ± 0.14
K58: M -0.138 ± 0.25; E 0.001 ± 0.22; C -0.099 ± 0.24; A -0.021 ± 0.27; R -0.036 ± 0.14; G -0.008 ± 0.29; Q 0.059 ± 0.43; V -0.315 ± 0.29
N52: F 0.073 ± 0.13; G -0.128 ± 0.17; Y -0.203 ± 0.19; A -0.091 ± 0.22; H -0.284 ± 0.13; K 0.071 ± 0.096; P -0.065 ± 0.08; D -0.236 ± 0.23; L -0.03 ± 0.078; I -0.141 ± 0.18; V 0.061 ± 0.17; Q -0.127 ± 0.13; R 0.028 ± 0.094; E -0.263 ± 0.34; C -0.041 ± 0.17; M -0.155 ± 0.11; S 0.107 ± 0.08; T -0.05 ± 0.11
I57: R -0.007 ± 0.25; G -0.157 ± 0.24; V -0.03 ± 0.37; M -0.205 ± 0.35; P -0.326 ± 0.31; C -0.25 ± 0.32
V54: T -0.209 ± 0.3; G -0.075 ± 0.091; R -0.557 ± 0.19; A -0.258 ± 0.21; S -0.358 ± 0.16; P -0.604 ± 0.32; H -0.484 ± 0.43
